Data taken from PMC11833081, “Biochemical analyses of cystatin-C dimers and cathepsin-B reveals a trypsin-driven feedback mechanism in acute pancreatitis” (Nature Communications, 2025).

Columns and labels:
[1] = molecular target: trypsin-cleaved (truncated) recombinant murine cystatin C (mouse) (UniProt P21460); assay: SEC; pH 5.0 and 5.5 (100 mM sodium acetate, 150 mM NaCl) and pH 5.5, 6.0, 7.0, 8.0 (100 mM sodium phosphate, 150 mM NaCl); 3 mg/mL protein kept at 4 °C overnight in the buffer; monomer to dimer ratio
[2] = molecular target: trypsin-cleaved (truncated) recombinant murine cystatin C (mouse) (UniProt P21460); assay: SEC; pH 4.0: 100 mM sodium acetate, 150 mM sodium chloride; 3 mg/mL protein kept at 4 °C overnight in the buffer; monomer to dimer ratio
[3] = molecular target: recombinant murine cathepsin B, wild type, auto-activated (mouse)
[4] = molecular target: the molecule itself; assay: SEC; Superdex 75 Increase 10/300 GL; running buffer 100 mM sodium acetate, 5 mM calcium chloride, 100 mM NaCl, pH 5.5; separation of monomer and dimer fractions

Molecule: trypsin-cleaved (truncated) recombinant murine cystatin C (from UniProt P21460 29-140) (domain or fragment)
- percent present as dimer [1]: 70%
- percent present as dimer [2]: 100%

B1: murine cystatin C dimer (dimer fraction isolated by size exclusion chromatography) (complex)
chain: ATPKQGPRMLGAPEEADANEEGVRRALDFAVSEYNKGSNDAYHSRAIQVVRARKQLVAGVNYFLDVEMGRTTCTKSQTNLTDCPFHDQPHLMRKALCSFQIYSVPWKGTHSLTKFSCKNA
- CTSB activity at pH 5.5 (Arg-Arg-AMC) with the CST3 dimer fraction [3]: 3 fold

B2: recombinant murine cystatin C (CST3), full-length (not trypsin-treated) (natural protein, mouse, UniProt P21460 21-140, looked up)
chain: B1 chain
notes: cystatin C, mouse, synthetic gene ordered without the signal peptide; The preparation is a mixture of monomer and dimer; the monomer fraction isolated by SEC is called mCST3; also called mCST3 (monomer fraction); CST3 monomers; source: E. coli SHuffle T7 Express, purified (Ni-IDA; monomer fraction by SEC); not shown: His-tag, N-terminal, kept; TEV protease cleavage site, N-terminal, kept
- stoichiometry N [4]: 2
